Assay [1] addresses T1, TrkA extracellular region (33-417) protein comprising human Fc (ACROBiosystems TRA-H5259) (human, UniProt P04629 33-417).
T1 construct: range 33-417; Bought fusion protein; also called human TrkA (33-417); human TrkA extracellular region
Kind of assay: competition ELISA, coated TrkA (33-417)-hFc, antibody titrated, competitor biotin-labeled human NGF. How it is done: Each well of a 96-well microtiter plate was coated with 50 ng of TrkA extracellular region (33-417) protein fused to human Fc, washed three times and blocked with 3% BSA for 1 hour. […] Each well was added with 100 μl and incubated at room temperature for 30 minutes. […] Streptavidin-labeled horseradish peroxidase (Streptavidin-HRP, Biolegend, 405210) was added and incubated for 0.5 hours. After washing three times, TMB was added to the plate, and the absorbance at 450 nm was read by a microplate reader after the color development was terminated.
On the technique in general: In an ELISA, binding on a coated surface is turned into a signal by an enzyme label.

Assay [2] concerns the target T2, full-length human TrkA expressed on cells (human, UniProt P04629 33-796). The assay can be described thus: cell-based or functional assay.
In assay [3] the target is T2, full-length human TrkA expressed on …. The assay can be described thus: cell-based or functional assay. The source holds these as a separate data set.
Assay [4] addresses fusion protein (fused to human Fc) containing only the portion of human TrkA extracellular region that binds NGF (TrkA 192-402) (ACROBiosystems TRA-H5258) (human) (UniProt P04629). The assay can be described thus: ELISA, coated human TrkA (192-402)-hFc.
Assay [5] has as its target T3, mouse TrkA extracellular region fusion protein (fused to human Fc) (Yiqiao Shenzhou 51103-M02H) (mouse, UniProt Q3UFB7 34-420).
T3 construct: extracellular domain; Bought fusion protein
Kind of assay: ELISA, plate coated with mouse TrkA extracellular region-hFc, HRP goat anti-mouse Fc detection. Here is the method: (§1) Example 2: ELISA Detection of the Binding of Murine Anti-TrkA Antibodies to Human TrkA The binding abilities of the anti-TrkA antibodies were detected by using a TrkA extracellular region (33-417) protein comprising human Fc (Beijing ACROBiosystems Co., Ltd., TRA-H5259). Each well of a 96-well microtiter plate was coated with 50 ng of human TrkA, washed and blocked, and then added with serially diluted antibodies, and incubated at room temperature for 1 hour. After washing three times, horseradish peroxidase-conjugated goat anti-mouse Fc antibody (Biolegend, 405306) was added and incubated at room temperature for 1 hour. After washing three time, tetramethylbenzidine (TMB, Biolegend, 421101) was added for color development. 1M HCl was used to terminate the color development, and the absorbance values were read at 450 nm with a microplate reader.
(§2) In addition, the species cross-reactivities of anti-TrkA antibodies were detected with monkey TrkA (Hangzhou Haoyang Biotechnology Co., Ltd., HSP037-05), rat TrkA (Beijing Yiqiao Shenzhou Technology Co., Ltd., 80243-R03H), mouse TrkA (Beijing Yiqiao Shenzhou Technology Co., Ltd., 51103-M02H) extracellular region fusion protein (fused to human Fc).

For assay [6], the target named is T4, human TrkC extracellular region protein (Yiqiao Shenzhou 10048-H03H) (human, UniProt Q16288 32-429).
T4 construct: extracellular domain; Bought protein
The assay can be described thus: ELISA, plate coated with human TrkC extracellular region protein, HRP goat anti-mouse Fc detection. Here is the method: as §1
(§3) Example 7: Detection of the Binding of Murine Anti-TrkA Antibodies to TrkA Proteins of the Same Family Each well of a 96-well microtiter plate was coated with 50 ng of human TrkA extracellular region protein, human TrkB extracellular region protein (Beijing Yiqiao Shenzhou Technology Co., Ltd., 10047-H03H), human TrkC extracellular region protein (Beijing Yiqiao Shenzhou Technology Co., Ltd., 10048-H03H). The bindings of the anti-TrkA antibodies to human TrkA and the two proteins of the same family were detected according to the method described in Example 2.

For assay [7], the target named is T1, TrkA extracellular region (33-417) …. Kind of assay: ELISA, coated human TrkA (33-417)-hFc, anti-mouse Fc-HRP. How it is done:
as §1

Assay [8] concerns the target T5, human TrkB extracellular region protein (Yiqiao Shenzhou 10047-H03H) (human, UniProt Q16620 32-430).
T5 construct: extracellular domain; Bought protein
Kind of assay: ELISA, plate coated with human TrkB extracellular region protein, HRP goat anti-mouse Fc detection. Here is the method: as §1, §3

The target in assay [9] is T6, rat TrkA extracellular region fusion protein (fused to human Fc) (Yiqiao Shenzhou 80243-R03H) (rat, UniProt P35739 33-418).
T6 construct: extracellular domain; Bought fusion protein
Kind of assay: ELISA, plate coated with rat TrkA extracellular region-hFc, HRP goat anti-mouse Fc detection. How it is done:
as §1, §2

In assay [10] the target is T2, full-length human TrkA expressed on …. Kind of assay: cell-based or functional assay. This is another data set of the same source.
The target of assay [11] is T1, TrkA extracellular region (33-417) …. The assay can be described thus: BLI (ForteBio Octet Red96), TrkA (33-417)-hFc captured on anti-human Fc sensor, antibody in solution. The text has this: Example 3: Affinity Assay of Murine Anti-TrkA Antibodies Binding to Human TrkA The affinities of the antibodies were detected with Biomolecular Interaction Detection Platform (ForteBio Octet Red96 (PALL)).
Human TrkA extracellular region (33-417) protein containing human Fc tag was fixed onto a chip by using an anti-human Fc capture sensor (Fortebio, 18-5088), and then bound to gradient concentrations of anti-TrkA antibody.
In general terms: BLI is a label-free optical method that tracks binding on a fibre tip over time.

T2 sequence (P04629 33-796): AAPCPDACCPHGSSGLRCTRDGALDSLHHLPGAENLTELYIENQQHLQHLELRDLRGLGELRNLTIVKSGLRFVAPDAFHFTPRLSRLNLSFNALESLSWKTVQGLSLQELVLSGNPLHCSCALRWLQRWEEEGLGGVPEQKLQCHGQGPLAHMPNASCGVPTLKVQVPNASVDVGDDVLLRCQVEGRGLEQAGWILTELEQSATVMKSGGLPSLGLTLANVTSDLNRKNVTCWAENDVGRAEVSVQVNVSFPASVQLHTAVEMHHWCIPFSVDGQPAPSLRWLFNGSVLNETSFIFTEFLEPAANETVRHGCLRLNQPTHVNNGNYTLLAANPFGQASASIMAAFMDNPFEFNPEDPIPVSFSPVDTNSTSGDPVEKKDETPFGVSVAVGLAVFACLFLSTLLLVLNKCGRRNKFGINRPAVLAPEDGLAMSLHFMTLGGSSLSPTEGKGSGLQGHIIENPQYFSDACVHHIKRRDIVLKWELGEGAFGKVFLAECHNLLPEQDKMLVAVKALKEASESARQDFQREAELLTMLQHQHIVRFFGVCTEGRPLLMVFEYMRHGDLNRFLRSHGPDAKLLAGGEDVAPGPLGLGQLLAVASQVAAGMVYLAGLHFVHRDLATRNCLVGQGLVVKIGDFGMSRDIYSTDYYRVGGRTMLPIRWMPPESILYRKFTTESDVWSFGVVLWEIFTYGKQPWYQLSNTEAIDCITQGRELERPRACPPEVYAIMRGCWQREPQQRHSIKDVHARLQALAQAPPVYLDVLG
T1 sequence (P04629 33-417 limits assumed): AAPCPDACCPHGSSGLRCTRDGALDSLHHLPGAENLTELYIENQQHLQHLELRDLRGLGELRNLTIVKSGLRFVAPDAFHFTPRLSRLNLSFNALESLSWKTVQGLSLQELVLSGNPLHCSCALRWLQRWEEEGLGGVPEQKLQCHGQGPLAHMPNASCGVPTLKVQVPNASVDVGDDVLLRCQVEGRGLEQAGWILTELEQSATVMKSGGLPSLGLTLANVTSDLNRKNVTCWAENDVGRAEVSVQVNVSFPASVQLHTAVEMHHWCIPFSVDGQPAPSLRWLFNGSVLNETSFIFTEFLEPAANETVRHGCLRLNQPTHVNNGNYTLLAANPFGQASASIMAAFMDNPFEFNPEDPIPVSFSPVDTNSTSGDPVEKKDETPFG
T5 sequence (Q16620 32-430): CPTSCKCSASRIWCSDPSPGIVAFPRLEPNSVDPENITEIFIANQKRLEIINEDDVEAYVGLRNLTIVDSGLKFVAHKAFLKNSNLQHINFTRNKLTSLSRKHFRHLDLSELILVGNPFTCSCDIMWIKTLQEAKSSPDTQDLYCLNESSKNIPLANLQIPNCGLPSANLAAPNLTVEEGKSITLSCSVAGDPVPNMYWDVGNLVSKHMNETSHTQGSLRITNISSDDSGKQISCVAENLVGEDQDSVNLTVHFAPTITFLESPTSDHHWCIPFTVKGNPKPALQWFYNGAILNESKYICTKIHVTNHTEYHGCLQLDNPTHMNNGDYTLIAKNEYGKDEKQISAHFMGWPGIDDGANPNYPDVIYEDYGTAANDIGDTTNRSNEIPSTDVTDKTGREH
T6 sequence (P35739 33-418, stated change not applied): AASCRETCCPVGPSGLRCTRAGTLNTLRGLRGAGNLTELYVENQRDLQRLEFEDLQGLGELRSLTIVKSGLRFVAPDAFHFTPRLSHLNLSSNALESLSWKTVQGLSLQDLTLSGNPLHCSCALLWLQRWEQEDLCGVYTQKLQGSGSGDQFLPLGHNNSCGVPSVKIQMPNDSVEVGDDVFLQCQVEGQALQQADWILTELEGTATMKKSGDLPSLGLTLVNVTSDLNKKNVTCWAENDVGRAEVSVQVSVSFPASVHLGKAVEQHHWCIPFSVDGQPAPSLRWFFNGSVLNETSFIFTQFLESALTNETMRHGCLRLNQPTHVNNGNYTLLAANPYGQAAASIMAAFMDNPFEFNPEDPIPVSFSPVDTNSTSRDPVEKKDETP
Sequence of fusion protein (fused to human Fc) containing only the portion of human TrkA extracellular region that binds NGF (TrkA 192-402) (ACROBiosystems TRA-H5258) (human) (P04629 192-402 limits assumed, form in doubt): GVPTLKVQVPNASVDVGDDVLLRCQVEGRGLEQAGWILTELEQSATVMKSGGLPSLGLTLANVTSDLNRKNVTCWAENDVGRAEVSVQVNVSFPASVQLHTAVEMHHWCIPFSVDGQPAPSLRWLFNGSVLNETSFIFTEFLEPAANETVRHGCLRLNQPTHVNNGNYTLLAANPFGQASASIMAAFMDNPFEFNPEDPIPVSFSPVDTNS
T3 sequence (Q3UFB7 34-420, stated change not applied): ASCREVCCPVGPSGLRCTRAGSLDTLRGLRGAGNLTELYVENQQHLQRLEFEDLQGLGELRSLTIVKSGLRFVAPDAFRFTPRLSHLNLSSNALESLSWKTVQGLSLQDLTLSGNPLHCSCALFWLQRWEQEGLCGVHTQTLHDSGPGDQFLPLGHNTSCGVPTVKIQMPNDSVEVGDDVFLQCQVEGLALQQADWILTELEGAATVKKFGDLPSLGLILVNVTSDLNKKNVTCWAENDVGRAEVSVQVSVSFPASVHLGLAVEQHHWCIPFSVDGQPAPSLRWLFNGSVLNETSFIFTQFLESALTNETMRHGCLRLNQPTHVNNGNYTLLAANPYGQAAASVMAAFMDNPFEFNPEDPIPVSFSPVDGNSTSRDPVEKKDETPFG

B1: anti-TrkA antibody 40D6 (antibody, V domains shown)
VH: QVQLQQSGTELMKPGASVKISCKATGYTFSRYWIEWVKQRPGHGLEWIGEILPGRSSTNYNEKFKGKATFTADTSSNTAYMQLSSLTSEDSAVYYCTRVSQLHIYFDYWGQGTTVTVSS
VL: DIVMTQVVPSVPVTPGESVSISCRSSKSLLHSNGNTYLYWFQQRPGQSPQLLIYRMSNLASGVPDRFSGSGSGTAFTLRISRVEAEDVAFYYCMQHLEFPLTFGAGTKLELK
notes: Murine monoclonal antibody purified from hybridoma medium by protein G
By IC50 is commonly meant the concentration needed to halve the response being measured. A low value points to inhibition by little substance. In general, EC50 refers to the concentration at which the effect is half-maximal. Lower therefore signals higher potency in that assay. By Kd is commonly meant the free concentration of one partner at which half of the binding sites on the other are occupied at equilibrium, for simple one-to-one binding. A high value points to lower affinity. As a reminder, the koff is the first-order rate constant of dissociation. Lower therefore signals slow dissociation. In general, kon refers to the rate constant with which the complex forms. A higher kon goes with faster complex formation. B1 showed an IC50 in [1] of 2280 pM. In assay [2], the “IC50 of inhibiting NGF-induced TrkA/Ba/F3 cell proliferation” value was determined as 1800 pM. In addition, the “IC50 of inhibiting NGF-induced TF-1 cell proliferation” value in assay [3] turned out to be 8530 pM. For the same molecule, the concentration for a half-maximal effect (EC50) in assay [4] is 195 pM; in assay [7], 202 pM. The binding result in assay [5] is “binds”; in assay [6] it was “no binding (tested: 66.67 nM)”; in [8], “no binding (tested: 66.67 nM)”; in assay [9], “binds”. The “inhibition of NGF-induced TrkA/Ba/F3 cell proliferation at 2.5 µg/mL (16.67 nM) or higher” value (“inhibition” for short) in assay [10] was determined as 100%. Further, the Kd in assay [11] was 27.1 pM. For the same molecule, the off-rate (koff) in assay [11] was 2.49e-05 s⁻¹. For the same molecule, in assay [11], the kon amounted to 918000 M⁻¹ s⁻¹.

B2: anti-TrkA antibody 33H5 (antibody, V domains shown)
VH: QVQLQQPGAELVKPGASVQLSCKASGYTFTSYWIHWVKQRPGQGLEWIGEINPNNGLTNYIEKFKNKATLTIDKSSNTAYMQLSGLTPEDSAVYYCAKYGNYVAFAYWGQGTLVTVSA
VL: DIQMTQSPASLSASVGDTVTITCRASENIYTYLAWYQQKQGKSPQLLVHNTKTLAEGVPSRFSGSGSGTQFSLKISSLQPEDFGTYYCQHHYGVPLTFGAGTKLELK
notes: as for B1
In turn, B2 yielded an IC50 in assay [1] of 1500 pM. Moreover, the “IC50 of inhibiting NGF-induced TrkA/Ba/F3 cell proliferation” value in assay [2] came to 413 pM. Also, in [3], the “IC50 of inhibiting NGF-induced TF-1 cell proliferation” value amounted to 2140 pM. In addition, the half-maximal effective concentration (EC50) in assay [4] was 173 pM; in assay [7], 204 pM. The binding result is recorded as “binds” in [5], “no binding (tested: 66.67 nM)” in assay [6], “no binding (tested: 66.67 nM)” in assay [8] and “binds” in assay [9]. The “inhibition” value in [10] was determined as 100%. For the same molecule, the dissociation constant (Kd) in [11] was found to be 16.2 pM. The molecule further gave a dissociation rate constant (koff) in assay [11] of 2.09e-05 s⁻¹. For the same molecule, the kon in [11] was 1.29e+06 M⁻¹ s⁻¹.

B3: anti-TrkA antibody 42A11 (antibody, V domains shown)
VH: QVQLQQPGAELVKPGASVKLSCKASGYTFTNYWMHWVKQRPGQGLEWIGEIYPSNGRTNYNEKFKTKATLTVDKSSSTAYMHLSSLTSEDSAVYYCAGSRYDAMDFWGQGTSVTVSS
VL: QIVLTQSPAIMSASPGEKVTMTCSASSIISYMHWYQQKSGTSPKRWIYDTSKLASGVPARFSGSGSGTSYSLTISGMEAEDAATYYCHQWTSNPLTFGGGTKLELK
notes: as for B1
Consider B3, for which the half-inhibitory concentration (IC50) in assay [1] was determined as 2050 pM. Further, the “IC50 of inhibiting NGF-induced TrkA/Ba/F3 cell proliferation” value in assay [2] was 738 pM. Also, the “IC50 of inhibiting NGF-induced TF-1 cell proliferation” value in assay [3] was found to be 1460 pM. Also, the EC50 in assay [4] was 234 pM; in [7], 187 pM. The binding result in assay [5] is given as “binds”; in assay [6], “no binding (tested: 66.67 nM)”; in assay [8], “no binding (tested: 66.67 nM)”; in assay [9], “binds”. Besides, the “inhibition” value in [10] came to 100%. The Kd in assay [11] worked out at 1.42 pM. In addition, the koff in [11] was found to be 1.26e-06 s⁻¹. In addition, in assay [11], the kon was determined as 889000 M⁻¹ s⁻¹.

B4: anti-TrkA antibody 42H6 (antibody, V domains shown)
VH: QVQLQQPGVELVKPGASVKLSCKTSGYTFTSYWMHWVKQRPGQGLEWIGEIYSSNGLTNYNEKFKNKATLTVDKSSSTAYMQLTSLTSEDSAIYYCARHWYVFLDHWGQGTTLTVSS
VL: QAVVTQESALTTSPGETVTLTCRSSTGAVTTSNHANWVQEKPDHLFTGLIGGINNRAPGVPARFSGSLIGDKAALTITGAQTEDEAIYFCALWYSNHWVFGGGTRLTVL
notes: as for B1
Turning to B4, the IC50 in assay [1] was found to be 2180 pM. Besides, in [2], the “IC50 of inhibiting NGF-induced TrkA/Ba/F3 cell proliferation” value was 782 pM. Also, in assay [3], the “IC50 of inhibiting NGF-induced TF-1 cell proliferation” value was determined as 3580 pM. For the same molecule, the EC50 in [4] was found to be 175 pM; in [7], 135 pM. Further, the binding result in assay [5] is “binds”; in assay [6], “no binding (tested: 66.67 nM)”; in assay [8], “no binding (tested: 66.67 nM)”; in [9], “binds”. In addition, in assay [10], the “inhibition” value was determined as 100%. In addition, binding in [11] was characterised by a dissociation constant (Kd) of 6.77 pM. The molecule also displayed a koff in assay [11] of 9.91e-06 s⁻¹. For the same molecule, the kon in assay [11] was 1.47e+06 M⁻¹ s⁻¹.

For the origin of these results see patent publication US12590158 (XIYUAN ANJIAN MEDICINE SHANGHAI, dated 2026).
